Data: patent US20210147523A1 (TEIJIN PHARMA, published 2021)

T1: mouse SPNS2 (mouse, UniProt Q91VM4 1-549)
T1 sequence: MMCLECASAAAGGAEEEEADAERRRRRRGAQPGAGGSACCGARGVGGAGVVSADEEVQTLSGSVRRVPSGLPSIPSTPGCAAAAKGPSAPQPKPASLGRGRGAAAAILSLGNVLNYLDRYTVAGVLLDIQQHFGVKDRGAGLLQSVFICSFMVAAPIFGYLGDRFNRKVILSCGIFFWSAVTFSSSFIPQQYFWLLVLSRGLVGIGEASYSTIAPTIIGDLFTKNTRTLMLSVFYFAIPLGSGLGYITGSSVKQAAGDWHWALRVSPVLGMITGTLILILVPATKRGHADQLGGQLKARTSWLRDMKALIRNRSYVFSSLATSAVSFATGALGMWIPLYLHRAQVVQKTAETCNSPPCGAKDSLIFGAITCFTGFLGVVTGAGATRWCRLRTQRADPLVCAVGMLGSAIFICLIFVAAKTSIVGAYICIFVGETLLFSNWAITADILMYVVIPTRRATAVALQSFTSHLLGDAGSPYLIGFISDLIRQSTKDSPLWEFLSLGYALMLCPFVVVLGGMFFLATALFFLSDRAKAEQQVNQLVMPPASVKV

T2: Mutant 2 of human SPNS2 (FLAG tag inserted in extracellular loop 5) (human, UniProt Q8IVW8 1-549)
T2 construct: on HEK293 cells; also called extracellular loop 5 mutant
T2 sequence: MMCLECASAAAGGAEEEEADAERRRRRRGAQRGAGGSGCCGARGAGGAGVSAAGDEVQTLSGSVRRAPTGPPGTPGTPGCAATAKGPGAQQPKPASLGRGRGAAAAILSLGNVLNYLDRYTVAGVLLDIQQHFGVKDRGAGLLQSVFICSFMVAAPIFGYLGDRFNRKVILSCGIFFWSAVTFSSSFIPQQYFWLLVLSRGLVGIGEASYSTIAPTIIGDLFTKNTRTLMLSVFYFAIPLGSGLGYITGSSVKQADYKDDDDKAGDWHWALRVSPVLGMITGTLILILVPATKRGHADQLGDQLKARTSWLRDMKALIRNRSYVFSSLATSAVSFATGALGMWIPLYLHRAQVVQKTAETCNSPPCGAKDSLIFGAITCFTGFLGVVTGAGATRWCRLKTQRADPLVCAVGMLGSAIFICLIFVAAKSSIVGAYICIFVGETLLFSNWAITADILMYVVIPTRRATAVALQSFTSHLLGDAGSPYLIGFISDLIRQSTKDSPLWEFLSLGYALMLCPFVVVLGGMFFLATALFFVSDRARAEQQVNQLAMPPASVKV

T3: Mutant 1 of human SPNS2 (FLAG tag inserted in extracellular loop 1) (human, UniProt Q8IVW8 1-549)
T3 construct: on HEK293 cells; also called extracellular loop 1 mutant
T3 sequence: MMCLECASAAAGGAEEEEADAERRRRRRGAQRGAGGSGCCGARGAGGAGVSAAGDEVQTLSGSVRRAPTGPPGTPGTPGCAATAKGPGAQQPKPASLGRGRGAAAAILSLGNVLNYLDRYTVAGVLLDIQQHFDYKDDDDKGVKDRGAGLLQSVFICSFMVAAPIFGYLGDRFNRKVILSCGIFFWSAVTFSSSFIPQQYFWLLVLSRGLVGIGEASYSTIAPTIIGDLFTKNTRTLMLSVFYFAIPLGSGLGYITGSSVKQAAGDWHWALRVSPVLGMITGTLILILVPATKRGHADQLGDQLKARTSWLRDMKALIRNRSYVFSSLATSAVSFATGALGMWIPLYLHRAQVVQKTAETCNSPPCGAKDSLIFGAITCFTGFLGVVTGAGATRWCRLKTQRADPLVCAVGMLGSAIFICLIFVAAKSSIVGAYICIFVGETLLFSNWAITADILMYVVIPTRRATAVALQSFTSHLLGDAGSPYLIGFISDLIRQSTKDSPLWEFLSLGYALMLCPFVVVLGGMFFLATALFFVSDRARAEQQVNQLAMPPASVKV

T4: Mutant 4 of human SPNS2 (FLAG tag inserted in extracellular loop 11) (human, UniProt Q8IVW8 1-549)
T4 construct: on HEK293 cells; also called extracellular loop 11 mutant
T4 sequence: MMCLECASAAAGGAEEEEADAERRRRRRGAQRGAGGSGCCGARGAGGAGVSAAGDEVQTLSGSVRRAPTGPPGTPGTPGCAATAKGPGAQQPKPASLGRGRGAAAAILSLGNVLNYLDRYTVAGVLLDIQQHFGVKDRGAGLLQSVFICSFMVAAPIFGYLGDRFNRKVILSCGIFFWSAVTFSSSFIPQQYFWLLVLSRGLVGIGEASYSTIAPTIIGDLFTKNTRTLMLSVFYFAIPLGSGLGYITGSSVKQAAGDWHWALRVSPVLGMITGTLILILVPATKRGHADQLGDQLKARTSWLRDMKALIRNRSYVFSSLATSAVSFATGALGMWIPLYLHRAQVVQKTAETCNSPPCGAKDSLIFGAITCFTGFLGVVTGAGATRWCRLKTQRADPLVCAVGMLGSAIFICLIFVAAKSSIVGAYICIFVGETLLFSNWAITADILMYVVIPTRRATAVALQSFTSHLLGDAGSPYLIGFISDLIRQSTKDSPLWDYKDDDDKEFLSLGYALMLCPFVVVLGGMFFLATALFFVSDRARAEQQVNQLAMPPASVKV


Legend:
mouse SPNS2 = target: T1, mouse SPNS2; assay: cell-based or functional assay
[1] = target: T2, Mutant 2 of human SPNS2 (FLAG tag …); assay: flow cytometry, FLAG-insertion mutant
Procedure, shortened: (§1)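 Binding was scored by flow cytometry as FITC-positive over Alexa 647-positive cell rate: (+) <0.1, (±) 0.1–<0.5, (−) ≥0.5. Staining used anti-SPNS2 (anti-rat IgG-FITC) and anti-FLAG (anti-mouse IgG-Alexa 647) antibodies at 20 μg/mL each, 30 min at room temperature, on HEK 293 cells lipofected the previous day.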

[2] = target: T3, Mutant 1 of human SPNS2 (FLAG tag …); assay: flow cytometry, FLAG-insertion mutant
Procedure, shortened: as §1

[3] = target: T4, Mutant 4 of human SPNS2 (FLAG tag …); assay: flow cytometry, FLAG-insertion mutant
Procedure, shortened: as §1

Binder	pIC50, S1P transport inhibition (S1PR3 Ca2+ FLIPR bioassay) (mouse SPNS2)	FITC+/Alexa 647+ cell rate ratio [1] [ratio]	FITC+/Alexa 647+ cell rate ratio [2] [ratio]	FITC+/Alexa 647+ cell rate ratio [3] [ratio]
80-1104A (antibody, IgG2b, V domains shown) VH: EVQLVETGGGLVQPGSSLKLSCSTSGFTFSETWMSWVRQAPGKGLEWVGLIKDKNSNYEANYAESVKGRFTISRDDSKRRVYLQMYTLRDQDTATYYCTSHEDFYYYSSYYFDYWGQGVMVTVSS VL: DIVLTQSPATLSVTPGESVSLSCRASQGISTSIHWYQQKSNESPRLLIKYASQSMSGIPSRFSGSGSGTDFTLRINRVESEDFSVYYCQQSYNLPLTFGSGTKLEIKR	7.8 pIC50 (M)	≥ 0.5	< 0.1	≥ 0.5
93-1310F (antibody, IgG2b, V domains shown) VH: EVQLVETGGGLVQPGSSLKLSCATSGFTFSDTWMSWVRQAPGKGLEWVALIKDKNSNYEANYAESVKGRFTISRDDSKRRVYLQMFTLRDQDTATYYCTSHEDFYYYSSYYFDYWGHGVMVTVSS VL: DIVLTQSPATLSVTPGESVSLSCRASQGISTSIHWYQQKSNGSPRLLIKYASQSISGIPSRFSGSGSGTDFTLRINRVESEDFSVYYCQQTYSLPLTFGSGTRLEIKR	7.9 pIC50 (M)	≥ 0.5	< 0.1	≥ 0.5
83-1110B (antibody, IgG2b, V domains shown) VH: EVQLQQSGPEFVRPGTSVKFSCKVSGGSITSYFIHFVKQRPGQGLEWIGKIDPEDDSTKYGEKFKNKATLTADTSSNTAFLKLSSLTSEDTAIYFCTTLTGLDYWGQGVMVTVSS VL: DIQMTQSPPVLSAAVGDRVTLSCKASRSLNKNLDWYQQKHGETPKLLIYHTHNLQTGIPSRFSGSGSDTDYTLTISSLQTEDVATYYCYQYHSGWTFGGGTRLELRR	8 pIC50 (M)	< 0.1	< 0.1	≥ 0.5
94-1311E (antibody, V domains shown) VH: EVQLQQSGAGLVRPRTSVRLSCKISGDSITAYYVHFVKQRPGQGLEWIGRIDPEDDSTKYSEKFKNKATLTADVSSSTAYLILSSLTSDDSATYFCSTLTGLDYWGQGVMVTVSS VL: DIQMTQSPPVLSASVGDRVTLSCKASQSVHNKLDWYQQKHGEAPKLLIYYTHNLQTGIPSRFSGSGSGSDYTLTISSLRAEDVATYYCFQYYSGWTFGGGTKLEMKR	8.1 pIC50 (M)	< 0.1	< 0.1	≥ 0.5
33-0503E (antibody, IgG2b, V domains shown) VH: EVQLVESGGGLVRPGGSMKLSCGASGFIFDNYYMTWVRQAPTKGLEWVASISSSGGNTYYRDSVRGRFTISRDNAGNTLSLQMGSLRAEDTATYHCAKEGYRGRYFDYWGQGVMVTVSS VL: QVVLTQPNSVSTNLGSTVKLSCKRTTGNIGSNYVNWYQQHEGRSPTTMIYRDDERPDGVPDRFSGSIDRSSNSALLTINNVQTEDEAEYFCQSYSSGIIFGGGTKLTVL	7.5 pIC50 (M)	< 0.1	< 0.1	≥ 0.5
49-0703G (antibody, IgG2b, V domains shown) VH: EVQLVESGGGLVQPGRSMKLSCAASGFTFSNHYMAWVRQAPTKGLEWVASISTGGGNTYYRDSVKGRFTISRDNAKSTLYLQMDSLRSEDTATYYCARQDYSNYMGGFAYWGQGTLVTVSS VL: QFVLTQPNSVSTNLGSTVKLSCKRSTGNIGNNYVNWYQQYEGRSPTTMIYRDDERPDGVPDRFSGSIDRSSNSALLTINNVQTEDEADYFCQSFSNGMFIFAGGTQLTVL	7.3 pIC50 (M)	< 0.1	< 0.1	≥ 0.5
